A short description of this series: soluble on expression in E. coli; label from the status in PepcDB or PDB records.
Regarding “MGSDKIHHHHHHMAQQDRLQQMREWIKTTPEISLDQLMGEYRISRDTARRDLIQLEREGKIIRVKNGLIRVGTNTTIQYDRRTEQPEKNRIAKHAVRYVQPDQTIILDAASTVARMTVHLPAQPIQIITNALAVVEQLEARPEIDLYVTGGKWDRHARSLVGIKTADDILNYQVDRVFLGACGLTEQGVFAENLEEAIVKKAMIRSSAEVIVLADHTKFEKRFLHKVCDLDQIDILITDERPTEQWQKWLQEADILLETAEEE”, the “soluble on expression in E. coli” value is “not soluble”.

Consider “DHLHVIGDIYDRGPAPDKIMDRLMSYHSLDIQLGNHDMIWLAAYSGSLACLANVVRICARYGNLDLLEERYAIDLTALKKFSLETYKENPAFAPKKNPYRALTEAEKQVAMRVQQAIAIIQEKLEGQIIGRRPDFNLAHRLRLDKIQGETITFDECRYTLINSCFQTVSEEQPYQLTREEKQIIDDLLTQFQSSPRLTKHMRFLMEKASLYLVYNQNLLIHGCLPLNADGTFQAYTFKGHSYSGKALVDFFQEMLEEAYAQPASTDDYATDCLWYLWCGEGSSLFGKRAMKTFERYFLAEKETHYEEKNPYYSLRDTVEVCERILDEFEVTGENRHIINGHTPVKRTKGESPIKANGTLLVIDGGFSKSYQTITGIAGYTLLYNS”, for which the “soluble on expression in E. coli” value was “not soluble”.

As for “MWKMLSSEYSILLIDDDADVLDAYTQLLEQSGYRVFACNNPFEAQAWIQPDWPGIVLSDVCMPGCSGIDLMMLFHQDDQQLPILLITGHGDVPMAVDAVKKGAWDFLQKPVDPGKLLSLVEEALRQRQSIIARRQYCQQTLQVELIGRSEWINQYRRRLQQLSETDIAVWLYGAPGTGRMTGARYLHQFGRNAQGEFVYRELTPDNAPQLNDFIALAQGGTLVLSHPEHLTREQQYHLVQLQSQEHRPFRLIGIGDTSLVELAASNHIIAELYYCFAMTQIACLPLTQRPDDIEPLFRHYLCKACQRLNHPVPEVGKEMLKEMMRRMWPNNVRELANAAELFTVGVLPLAETANPLMHVGTPTPLDRRVEDAERQIITEALNIHQGRINEVAEYLQIPRKKLYLRMKKYGLSKEHYKI”, the “soluble on expression in E. coli” value is given as “not soluble”.

Consider “KLSPMIDLWDTLQSLLHVQELHVVAAHGEVKELLVRMSLNEATIPPEKVPIHAINLLLEDTVIPFIFTMEEERSISIPYTDSIDKYVYEPHTALLKAGAFKTVAYRLGLRKLHPNSHLYTSEAYESAFPGRTFVLEEIIPFSTSVLKQLRKVVPQASISCRNFPLSPIELRQRSKMADGGEKTLMGTTMADGKKVLLLLRKAE”, for which the “soluble on expression in E. coli” value is on record as “not soluble”.

Consider “MTEMIRPRVKYVIGPDGSPLTIADLPPANTRRWVIRRKAEVVAAVRGGLLSLEEACERYTLTVEEFLSWQSSISDHGLAGLRTTRIQQYRHAAALEHHHHHH”, for which the “soluble on expression in E. coli” value is reported as “soluble”. Consider “MAVLYLVGTPIGNLADITYRAVDVLKRVDMIACEDTRVTSKLCNHYDIPTPLKSYHEHNKDKQTAFIIEQLELGLDVALVSDAGLPLISDPGYELVVAAREANIKVETVPGPNAGLTALMASGLPSYVYTFLGFLPRKEKEKSAVLEQRMHENSTLIIYESPHRVTDTLKTIAKIDATRQVSLGRELTKKFEQIVTDDVTQLQALIQQGDVPLKGEFVILIEGAKANNEISWFDDLSINEHVDHYIQTSQMKPKQAIKKVAEERQLKTNEVYNIYHQIS”, for which the “soluble on expression in E. coli” value is on record as “not soluble”.

As to “GACDNDTEPGGTAVEKMAGDWWVTVNAFIDGKEVEDPFGAGHLQMSTYNTASNSETEMWLDDLGNFWEYKLKVNVNYAARTFSTTGFVDNVTYESKVKITDGKVLEKAATTPSGMPADSIVYMVQFDDDEDGLTYKVSGFRRTGFPADDF”, the “soluble on expression in E. coli” value is recorded as “soluble”.

Consider “MSETPEYGVLSWWDYGNWIVYVGKRPAVSNNFQTGVEDSANFLLTDSEEEAKTIVEKLKVKYVMTDTLMAEGKFSSITSLAGKEIGEYYEVETVKGDTGLRTVATPKQALLQTQVYKLHKLDGTSLGHFRLVHESAVNSTDDGNSKENTVKVFEYVKGATLSGTLEHHHHHH”, for which the “soluble on expression in E. coli” value is on record as “not soluble”. For the sequence “MREQISVLTQNLSQTIVGKDEAIRLVLVALLSGGHALLEDVPGVGKTLLAKSLARSINGKFQRVQCTPDLLPTDITGTNIWNPSSREFEFLPGPAFANILLADEINRATPRTQAALLEVMEEKQVTVDGETRLVPHPFFVIATQNPIEYQGTFPLPEAQLDRFALSLSLGYPSEAEELKMLQRQQNPEAIAVGDLESCISLEEVEALQKAVRQVKLTEDLQQYLLRLVRASRTDEDVTLGVSPRGTTALQRATQAFAFLEERDYAIDDDVKFVAPHVLAHRLIPASGKDPKAILQRLLDSVPILEHHHHHH”, the “soluble on expression in E. coli” value is “not soluble”. Regarding “MRGKAWMLTAVALTGLGLAQIRADGSSTVYPITQAVAEEFVTRNPQVRISVAFSGTGAGFQKFCRGETDVQNASRPIRKSELEACQKAGIQFIEIPVAYDALSILVNRQNTWAQCLTTAQLKSIWEPNAKVNYWKDLNPAWPNRRIVLFGAGTDSGTFDYFTEAIMGRAGSIRKDYFPSEDDNVIMRGVTGNPYAMAFVGFAYYEENKDKVKAVAIDHGKGCVLPSRETVLDGTYQPLSRPLFIYVNVKSLDRPEVQAFVDFYLSPAARRAIRSTGYVELPDEAYRIGQGLVARKKTGSFFTDLPPGTPLAKFIEELRKEVQ”, the “soluble on expression in E. coli” value is “soluble”. Regarding “MASPLRFDGRVVLVTGAGGGLGRAYALAFAERGALVVVNDLGGDFKGVGKGSSAADKVVEEIRRRGGKAVANYDSVEAGEKLVKTALDTFGRIDVVVNNAGILRDRSFSRISDEDWDIIQRVHLRGSFQVTRAAWDHMKKQNYGRIIMTASASGIYGNFGQANYSAAKLGLLGLANTLVIEGRKNNIHCNTIAPNAGSRMTETVMPEDLVEALKPEYVAPLVLWLCHESCEENGGLFEVGAGWIGKLRWERTLGAIVRKRNQPMTPEAVRDNWVKICDFSNASKPKSIQESTGGIIEVLHKIDSEGISQNHTGQVASAD”, the “soluble on expression in E. coli” value was “soluble”. Regarding “PWDSENTIYDKVDQTKRFIEDVVKSFKQNNAILGWILTNEISLVRIPQNDNIFLRWLRELYNYIKRIDDQHLISVGDNVSPFSHNFLRPENVKGIVDYASPHIYQYDQDPIRHSIRYFMILEYDRSAGLPVILEEFG”, the “soluble on expression in E. coli” value was “not soluble”. The value for “SASVRIREAKEGDCGDILRLIRELAEFEKLSDQVKISEEALRADGFGDNPFYHCLVAEILPAPGKLLGPCVVGYGIYYFIYSTWKGRTIYLEDIYVMPEYRGQGIGSKIIKKVAEVALDKGCSQFRLAVLDWNQRAMDLYKALGAQDLTEAEGWHFFCFQGEATRKLAGK” was “soluble”; that for “MELAQEARELGCWAVEEMGVPVAARAPESTLRRLCLGQGADIWAYILQHVHSQRTVKKIRGNLLWYGHQDSPQVRRKLELEAAVTRLRAEIQELDQSLELMERDTEAQDTAMEQARQHTQDTQRRALLLRAQAGAMRRQQHTLRDPMQRLQNQLRRLQDMERKAKVDVTFGSLTSAALGLEPVVLRDVRTACTLRAQFLQNLLLPQAKRGSLPTPHDDHFGTSYQQWLSSVETLLTNHPPGHVLAALEHLAAEREAEIRSLCSGDGLGDTEISRRAGGLWVCWSPSGAPS” was “soluble”; that for “MGSDKIHHHHHHMQNIIIEARVNELATRIGNPHVPFLPAEVIADAKACHDAGASIFHFHGRNEDGTPSHDPNFYLETNAGIRAQSDILIHPTLGYVANDTDAKGRFAAIEQMMQSAETAPDFAPMDTGSVNVDWWNPDEGKYDTTELIYKNSTGTLMYFADRIRHYNLTPYLVSWNVSFTRQIEQFLKMGVLDAPAYICFCMTDEIIFAGHPGTEAGLDAHTAFLPPEFETVWTVVNYKGDLFQLTEKIIRTGGHISIGLGDYAYMDGSRHMTNAEVIAKVADQARRLGREPASVAETREILNMKTPRIAA” was “not soluble”. On to “MSLKKKVVIVGGGFTGLNTARILSNRKDVEVTLIDRKNYHLFQPLLYQVAMAALGEGDIATPLRNMLAGYDNVTVFKGNVCNVDLEQKKVKTDFGDIEYDYLVLACGAQHHYFGKNDWEEHAPGLKNLAQASEIRRRVMEAYEAAERTNDMKERKKQLTFVIVGGGPTGVELAGSIGEMSRYTLSKFYRHIDPKLTRIFIVEAAERILGTFSPELSSKATRELEKLGVQVWTSSMVSDVDADGVQIGRERIEAATVLWAAGVKASEIGQNMGVQTDRSGRIMVEADLSLPGHPEVFVGGDQACYTLENGSTLPGMAPVAMQEGKAIGRMILDDLKGKPRKPFKYRDKGQMATIGRNRAIVEIGNLKFDGEGHHHHHH”, for which the “soluble on expression in E. coli” value is “soluble”.

Consider “MGSSHHHHHHSSGLVPRGSHMLEADPLLAQLKQQLHSQTPRAEGVVKATEKGFGFLEVDAQKSYFIPPPQMKKVMHGDRIIAVIHSEKERESAEPEELVEPFLTRFVGKVQGKNDRLAIVPDHPLLKDAIPCRAARGLNHEFKEGDWAVAEMRRHPLKGDRSFYAELTQYITFGDDHFVPWWVTLARHNLEKEAPDGVATEMLDEGLVREDLTALDFVTIDSASTEDMNDALFAKALPDDKLQLIVAIADPTAWIAEGSKLDKAAKIRAFTNYLPGFNIPMLPRELSDDLCSLRANEVRPVLACRMTLSADGTIEDNIEFFAATIESKAKLVYDQVSDWLENTGDWQPESEAIAEQVRLLAQICQRRGEWRHNHALVFKDRPDYRFILGEKGEVLDIVAEPRRIANRIVEEAMIAANICAARVLRDKLGFGIYNVHMGFDPANADALAALLKTHGLHVDAEEVLTLDGFCKLRRELDAQPTGFLDSRIRRFQSFAEISTEPGPHFGLGLEAYATWTSPIRKYGDMINHRLLKAVIKGETATRPQDEITVQMAERRRLNRMAERDVGDWLYARFLKDKAGTDTRFAAEIVDISRGGMRVRLVDNGAIAFIPAPFLHAVRDELVCSQENGTVQIKGETVYKVTDVIDVTIAEVRMETRSIIARPVA”, for which the “soluble on expression in E. coli” value is listed as “soluble”. Take “MLACSFKAVNGGFRHLLIRMIIDPPHHLFDTALARQIAIHILHYQFEVTRPRLVAMQEHERTAVARSLRTINRRLEEPVFAKAYRRWAGRDGTVSRDCFKFDCCA”: the “soluble on expression in E. coli” value is reported as “not soluble”. Turning to “MGSDKIHHHHHHMTAIANRYEFVLLFDVENGNPNGDPDAGNMPRIDPETGHGLVTDVCLKRKIRNHVALTKEGAERFNIYIQEKAILNETHERAYTACDLKPEPKKLPKKVEDAKRVTDWMCTNFYDIRTFGAVMTTEVNCGQVRGPVQMAFARSVEPVVPQEVSITRMAVTTKAEAEKQQGDNRTMGRKHIVPYGLYVAHGFISAPLAEKTGFSDEDLTLFWDALVNMFEHDRSAARGLMSSRKLIVFKHQNRLGNAPAHKLFDLVKVSRAEGSSGPARSFADYAVTVGQAPEGVEVKEML”, the “soluble on expression in E. coli” value is “not soluble”. With “MGSDKIHHHHHHMNWDNARFFLALARTGTLRGAAAQLNVDQATVGRRIAALEDELSARLFLRTPALYVLTTAGEALLEPAETMERASLTIERRVMGLDEQLAGTVRIATTDSLGKRFVIPAIARLRRRHAGIDVVCVTSTEIANLTRREADLAIRTLRPESPDLIVRRLGHLETGIYASRHYLAERGEPVAGSAFDGHDLVMYQQPVMPTMWDALCGEPTSRGRVMFQTSSTMMLVEAALAGLGIAELPCFRAEAEPELVRLMARRCNHFDVWLVAHADLYKTARVQAVIEAVVEEFATAAPSTR”, the “soluble on expression in E. coli” value is reported as “not soluble”. “MPMLTRILLLLCVALNAPLASAKETLHIYAASSMTNAVNALVADYSQQHDVKLVTVYGGSSSLARQIEAGAPADLFISANEEWANYLVEKGLVKPNKVVTLAANSLVLIRPTAQPVASFELQDAAAWQTALADSRLAVAQVDAVPAGMYAKQALQHAGVWPELESRLAQTNNVRLALALVERGESPLGIVYKTDALLSDKVTIVTAFSAQSHQPIRYPLAQLNDKAASAEWVAYLRSDAAQQILQRFGFESVSE”: the “soluble on expression in E. coli” value was “not soluble”.

The record behind these values is the DeepSol protein solubility set.
